In PMC8847413 one finds Kd data, which are given here for one substance.

The target of test [1] is prefusion-stabilized trimeric S protein (S ectodomain) of SARS-CoV-2 Delta (B.1.617.2) variant (SARS-CoV-2) (UniProt P0DTC2). As to the kind of experiment: BLI.
For test [2], the target named is prefusion-stabilized S protein (S trimer) of SARS-CoV-2 G614 variant (SARS-CoV-2) (UniProt P0DTC2). As to the kind of experiment: BLI.

Sequence of human ACE2 peptidase domain (PD) (Q9BYF1 17-615): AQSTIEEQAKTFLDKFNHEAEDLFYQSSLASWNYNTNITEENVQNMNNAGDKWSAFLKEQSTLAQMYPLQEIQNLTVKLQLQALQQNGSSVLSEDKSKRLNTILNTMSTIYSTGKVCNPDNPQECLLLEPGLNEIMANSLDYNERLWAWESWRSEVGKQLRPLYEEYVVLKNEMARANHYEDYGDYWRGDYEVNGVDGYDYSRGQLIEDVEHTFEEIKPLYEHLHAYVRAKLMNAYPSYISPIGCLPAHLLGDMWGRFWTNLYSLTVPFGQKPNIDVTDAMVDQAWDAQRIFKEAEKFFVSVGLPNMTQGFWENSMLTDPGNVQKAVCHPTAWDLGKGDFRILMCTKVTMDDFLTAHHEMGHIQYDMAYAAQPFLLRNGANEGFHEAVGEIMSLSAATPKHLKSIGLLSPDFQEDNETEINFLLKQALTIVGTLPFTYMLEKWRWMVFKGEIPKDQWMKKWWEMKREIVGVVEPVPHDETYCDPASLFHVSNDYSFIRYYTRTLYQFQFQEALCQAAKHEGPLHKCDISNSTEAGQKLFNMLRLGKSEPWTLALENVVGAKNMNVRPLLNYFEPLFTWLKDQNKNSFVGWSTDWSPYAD

What is called Kd is the constant that tells how readily two partners part at equilibrium. “human ACE2 peptidase domain (PD) (from UniProt Q9BYF1) (domain or fragment)”: the Kd was found to be 41 nM in test [1] and 87 nM in test [2].
